Reference: patent US20250326840A1 (QURE BIOTECHNOLOGY SHANGHAI, published 2025)
Positions count from the first letter of the chain named. Names and notes keep the numbering of the source.

B1: QP026249 (KWAR23 analog) (antibody, human IgG4 S228P, kappa)
heavy: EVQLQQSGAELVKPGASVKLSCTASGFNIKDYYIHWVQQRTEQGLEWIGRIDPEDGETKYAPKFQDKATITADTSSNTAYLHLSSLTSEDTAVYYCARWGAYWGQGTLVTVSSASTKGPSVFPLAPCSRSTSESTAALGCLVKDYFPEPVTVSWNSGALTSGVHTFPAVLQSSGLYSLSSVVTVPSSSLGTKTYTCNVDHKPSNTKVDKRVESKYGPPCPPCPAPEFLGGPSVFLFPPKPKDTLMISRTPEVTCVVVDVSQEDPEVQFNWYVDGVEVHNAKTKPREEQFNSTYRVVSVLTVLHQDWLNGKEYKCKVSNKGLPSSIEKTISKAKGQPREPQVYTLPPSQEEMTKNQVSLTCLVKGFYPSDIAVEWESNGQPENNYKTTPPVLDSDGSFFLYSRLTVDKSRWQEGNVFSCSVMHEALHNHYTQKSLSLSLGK
light: QIVLTQSPAIMSASPGEKVTLTCSASSSVSSSYLYWYQQKPGSSPKLWIYSTSNLASGVPARFSGSGSGTSYSLTISSMEAEDAASYFCHQWSSYPRTFGAGTKLELKRTVAAPSVFIFPPSDEQLKSGTASVVCLLNNFYPREAKVQWKVDNALQSGNSQESVTEQDSKDSTYSLSSTLTLSKADYEKHKVYACEVTHQGLSSPVTKSFNRGEC
notes: also called KAWA23 analog; control antibody KWAR23 (QP026249), human IgG4
B2: QP37503751 (1H9 analog) (antibody, human IgG1, kappa, N297A, V domains shown)
VH: QVQLVQSGAEVKKPGASVKVSCKASGYTFTSYWITWVKQAPGQGLEWIGDIYPGSGSTNHIEKFKSKATLTVDTSISTAYMELSRLRSDDTAVYYCATGYGSSYGYFDYWGQGTLVTVSS
VL: DIQMTQSPSSLSASVGDRVTITCRASENIYSYLAWYQQKPGKAPKLLIYTAKTLAEGVPSRFSGSGSGTDFTLTISSLQPEDFATYYCQHQYGPPFTFGQGTKLEIKR
notes: also called hz1H9 hIgG1(N297A)
B3: QP32700279 (antibody, human IgG1, kappa, L234A L235A, V domains shown)
VH: QVQLVQSGAEVKKPGASVKVSCKASGYTFTNYWINWVRQAPGQGLEWIAMIDPSDSETHYNQIFKDRATLTTDTSTSTAYMELRSLRSDDTAVYYCAMDYGSLYAMDYWGRGTLVTVSS
VL: DIVLTQSPDSLAVSLGERATINCRASQSVRSSGYNWIFWYQQKPGQPPKLLIYLASNRDSGVPDRFSGSGSGTDFTLTISSLQAEDVAVYYCQHSRELPTFGQGTKLEIKR
notes: also called SIRPα monoclonal antibody CHO71
B4: QP250251 (18D5 analog) (antibody, human IgG4 S228P, kappa, V domains shown)
VH: QVQLQQPGAELVRPGSSVKLSCKASGYTFTSYWVHWVKQRPIQGLEWIGNIDPSDSDTHYNQKFKDKASLTVDKSSSTAYMQLSSLTFEDSAVYYCVRGGTGTMAWFAYWGQGTLVTVSA
VL: DVVMTQTPLSLPVSLGDQASISCRSSQSLVHSYGNTYLYWYLQKPGQSPKLLIYRVSNRFSGVPDRFSGSGSGTDFTLKISRVEAEDLGVYFCFQGTHVPYTFGSGTKLEIKR
notes: also called SIRPα antibody 18D5 from OSE
B5: QP256279 (antibody, human IgG4, V domains shown)
VH: B3 VH
VL: DIVLTQSPDSLAVSLGERATINCRASQSVRSSGYNWIFWYQQKPGQPPKLLIYLASNRDSGVPDRFSGSGSGTDFTLTISSLQAEDVAVYYCQHSRELPTFGQGTKLEIK
notes: Human IgG4 heavy constant region and kappa CL

What follows are binders tested against T1, QP095 (human SIRPα V2 ECD(E31-R370)-mFC(IgG2a)) (human) (assay: ELISA, human SIRPα V2 recombinant protein (QP095) coated, HRP anti-human Fc detection).
T1 construct: also called human SIRPα V2 recombinant protein (QP095)
For B1, the EC50 was 0.467 nM.
With B2 the EC50 was 0.218 nM.
Work on B3 yielded an EC50 of 0.186 nM.

These binders were tested against T2, QP532 (SIRPαV3-mFC(mIgG2a)) (human) (assay: ELISA, human SIRPα V3 recombinant protein (QP532) coated, HRP anti-human Fc detection).
T2 construct: also called human SIRPα V3 recombinant protein (QP532)
In the case of B1, the EC50 is reported as 0.433 nM.
B2 showed an EC50 of 0.31 nM.
With B3 the EC50 was 0.144 nM.

Biological target: T3, QP533 (SIRPαV4-mFC(mIgG2a)) (human, limits assumed)
T3 construct: also called human SIRPα V4 recombinant protein (QP533)
T3 chain: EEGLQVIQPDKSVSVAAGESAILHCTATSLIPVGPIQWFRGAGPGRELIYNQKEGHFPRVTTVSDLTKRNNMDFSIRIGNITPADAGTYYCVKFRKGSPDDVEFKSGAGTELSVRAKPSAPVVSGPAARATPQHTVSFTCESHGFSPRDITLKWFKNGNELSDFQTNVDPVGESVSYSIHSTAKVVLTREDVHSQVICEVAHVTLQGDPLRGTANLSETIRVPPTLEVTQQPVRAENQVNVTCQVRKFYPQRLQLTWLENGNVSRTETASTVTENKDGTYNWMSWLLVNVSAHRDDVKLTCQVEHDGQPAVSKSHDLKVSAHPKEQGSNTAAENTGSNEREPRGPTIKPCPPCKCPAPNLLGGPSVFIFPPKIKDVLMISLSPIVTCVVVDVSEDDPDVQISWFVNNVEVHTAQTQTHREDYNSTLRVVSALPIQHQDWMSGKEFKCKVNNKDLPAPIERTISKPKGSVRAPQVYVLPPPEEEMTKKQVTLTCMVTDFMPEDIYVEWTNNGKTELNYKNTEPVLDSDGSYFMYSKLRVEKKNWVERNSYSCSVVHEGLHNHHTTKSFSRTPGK
Assay: ELISA, human SIRPα V4 recombinant protein (QP533) coated, HRP anti-human Fc detection
In the case of B1, the EC50 is reported as 0.439 nM.
In the case of B4, the EC50 is reported as 0.539 nM.
With B2 the EC50 was 0.169 nM.
Binder B3 has an EC50 of 0.151 nM.

Biological target: T4, QP534 (SIRPαV5-mFC(mIgG2a)) (human, limits assumed)
T4 construct: also called human SIRPα V5 recombinant protein (QP534)
T4 chain: T3 chain with G3E, S12F, S14L, S20T, I22T, H24R
Assay: ELISA, human SIRPα V5 recombinant protein (QP534) coated, HRP anti-human Fc detection
For B1, the EC50 was 0.418 nM.
In the case of B4, the EC50 is reported as 0.438 nM.
B2 gave an EC50 of 0.167 nM.
Work on B3 yielded an EC50 of 0.15 nM.

Biological target: T5, QP538 (SIRPαV9-mFC(mIgG2a)) (human, limits assumed)
T5 construct: also called human SIRPα V9 recombinant protein (QP538)
T5 chain: T3 chain with G3E, S14L, S20T, I22T, H24R, G79S
Assay: ELISA, human SIRPα V9 recombinant protein (QP538) coated, HRP anti-human Fc detection
B1 gave an EC50 of 0.804 nM.
B4 showed an EC50 of 0.854 nM.
Binder B2 has an EC50 of 0.438 nM.
With B3 the EC50 was 0.361 nM.

Biological target: T6, SIRPα V1 fusion Fc (mouse IgG2a) (human, limits assumed)
T6 chain: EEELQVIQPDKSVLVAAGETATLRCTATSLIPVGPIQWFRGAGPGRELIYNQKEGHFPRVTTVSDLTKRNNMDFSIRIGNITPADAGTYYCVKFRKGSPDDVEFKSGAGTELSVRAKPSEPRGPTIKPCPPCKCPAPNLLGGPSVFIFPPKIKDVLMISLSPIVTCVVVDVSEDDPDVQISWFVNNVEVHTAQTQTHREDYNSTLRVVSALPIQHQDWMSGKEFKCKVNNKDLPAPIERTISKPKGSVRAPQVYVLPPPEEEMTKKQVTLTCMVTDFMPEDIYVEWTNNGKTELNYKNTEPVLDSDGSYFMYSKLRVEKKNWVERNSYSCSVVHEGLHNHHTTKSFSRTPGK
Assay: ELISA, SIRPα V1-mouse IgG2a Fc coated, anti-hFab detection; unit from the x axis Log(Conc.(nM))
In the case of B1, the EC50 is reported as 0.16 nM.
B4 was tested, and the EC50 was 0.154 nM.
B5 gave an EC50 of 0.0786 nM.
